B1: H2-Kb / Ed46 (parent complex)
chain 1: AQSVTQPDARVTVSEGASLQLRCKYSYFGTPYLFWYVQYPRQGLQLLLKYYPGDPVVQGVNGFEAEFSKSNSSFHLRKASVHWSDWAVYFCAVGRTGGYKVVFGSGTRLLVSP
chain 2: DSGVVQSPRHIIKEKGGRSVLTCIPISGHSNVVWYQQTLGKELKFLIQHYEKVERDKGFLPSRFSVQQFDDYHSEMNMSALELEDSAMYFCASSPRHSDYTFGSGTRLLVI
chain 3: not shown
chain 4: IQKTPQIQVYSRHPPENGKPNILNCYVTQFHPPHIEIQMLKNGKKIPKVEMSDMSFSKDWSFYILAHTEFTPTETDTYACRVKHDSMAEPKTVYWDRDM
chain 5: SIINFEKL

Variants of: B1
Assay: % of reporter cells activated (NFAT-GFP), raw; further: test concentration or dose not given here

Point of comparison: chain 5 K7D, ratio to parent 0.0219. Against it:
- chain 5 S1R — higher, 0.223
- chain 5 S1Q — higher, 0.0873
- chain 5 S1D — higher, 0.675
- chain 5 S1W — higher, 0.151
- chain 5 S1L — lower, 0.0092
- chain 5 S1G — higher, 0.39
- chain 5 S1Y — higher, 0.795
- chain 5 F5A — higher, 1.01
- chain 5 F5T — higher, 1.38
- chain 5 F5D — higher, 0.591
- chain 5 F5K — higher, 0.845
- chain 5 F5E — higher, 0.65
- chain 5 F5W — higher, 1.2
- chain 5 F5P — higher, 1.17
- chain 5 F5I — higher, 1.02
- chain 5 F5N — higher, 0.955
- chain 5 F5Q — higher, 0.757
- chain 5 F5Y — higher, 1.3
- chain 5 F5G — higher, 0.916
- chain 5 E6M — higher, 0.398
- chain 5 E6I — lower, 0.0119
- chain 5 E6C — higher, 0.0448
- chain 5 E6N — higher, 0.464
- chain 5 E6K — higher, 0.746
- chain 5 E6P — higher, 0.329
- chain 5 E6R — higher, 0.632
- chain 5 E6H — higher, 0.25
- chain 5 E6T — higher, 0.0683
- chain 5 E6F — higher, 0.0998
- chain 5 E6Y — higher, 0.119
- chain 5 N4V — lower, 0.00323
- chain 5 N4E — lower, 0.0143
- chain 5 N4D — lower, 0.009
- chain 5 N4I — higher, 0.0714
- chain 5 N4Q — lower, 0.00528
- chain 5 N4H — higher, 0.036
- chain 5 N4A — lower, 0.0038
- chain 5 N4C — higher, 0.0356
- chain 5 N4G — lower, 0.00595
- chain 5 I2C — higher, 1.26
- chain 5 I2M — higher, 1.17
- chain 5 I2Q — higher, 0.775
- chain 5 I2K — higher, 1.12
- chain 5 I2E — higher, 1.11
- chain 5 I2L — higher, 1.38
- chain 5 I2G — higher, 1.2
- chain 5 I2D — higher, 1.37
- chain 5 I2P — higher, 1.23
- chain 5 I2H — higher, 0.785
- chain 5 I2W — higher, 0.693
- chain 5 I3Q — higher, 0.383
- chain 5 I3V — higher, 0.724
- chain 5 I3A — higher, 0.139
- chain 5 I3P — higher, 0.669
- chain 5 I3L — higher, 1.05
- chain 5 I3C — higher, 0.689
- chain 5 I3T — higher, 0.301
- chain 5 I3W — higher, 0.64
- chain 5 I3S — higher, 1.06
- chain 5 I3F — higher, 0.726
- chain 5 L8P — higher, 0.718
- chain 5 L8V — higher, 0.886
- chain 5 L8R — higher, 0.918
- chain 5 L8W — higher, 0.918
- chain 5 L8Q — higher, 0.977
- chain 5 L8E — higher, 0.691
- chain 5 L8G — higher, 0.703
- chain 5 L8F — higher, 1.06
- chain 5 K7T — higher, 0.291
- chain 5 K7F — higher, 0.0438
- chain 5 K7A — higher, 0.383
- chain 5 K7Y — higher, 0.446
- chain 5 K7S — higher, 0.689
- chain 5 K7M — higher, 0.0863

— publication PMC11480844 (2024)
